Residue numbers refer to the chain shown, from its start. In names and notes the source's numbering stands.
B1: CsDFRa (Camellia sinensis) (protein)
chain: MKDSVASATASAPGTVCVTGAAGFIGSWLVMRLLERGYIVRATVRDPANLKKVKHLLDLPKADTNLTLWKADLNEEGSFDEAIEGCSGVFHVATPMDFESKDPENEVIKPTINGVLSIIRSCTKAKTVKRLVFTSSAGTVNVQEHQQPVFDENNWSDLDFINKKKMTGWMYFVSKTLAEKAAWEAAKENNIDFISIIPTLVVGPFIMPTFPPSLITALSPITRNEGHYSIIKQGQFVHLDDLCESHIFLYERPQAEGRYICSSHDATIHDLAKLMREKWPEYNVPTEFKGIDKDLPVVSFSSKKLIGMGFEFKYSLEDMFRGAIDTCREKGLLPHSFAENPVNGNKV
B2: CsDFRb1 (Camellia sinensis; C126T) (protein)
chain: MEVVEVKNGYGGGGGTTVCVTGASGFIGSWLVMRLLQRGYYVRATVRDPDNTDKVKHLLDLPNATTHLSLWKADLDEDGSFDDAIQGCHGVFHVATPMNFVFVMDPENEYIKPTVDGVLNVMRSCTKAKTVKRIIYTSTMATIEYQQKPPSQYDESIWTDVDFCRARKMFAWMYLVAKTEAEKAAWKFAEDNGPDLITVHPCSVIGPFITPYKPPCTSMALALITKNKAFYPMLTQGHAVHVDDVCNAHIYLFEHPQAKGRYICSSHSFTILDLASSLSKKYPEYNIQTKFEDIDESLKPIPCPSKKLLDLGFKFKYNSDECDAGDLCAEAIEACKEKGQMPSL
notes: only point mutants active
B3: CsDFRb1 (Camellia sinensis; N120S) (protein)
chain: B2 chain with N120S, T126C
notes: only point mutants active
B4: CsDFRc (Camellia sinensis) (protein)
chain: MEDTKSKLQEGSAVESLTTTTYCVTGATGYIGSWLVKSLLQRGYRVHATVRNQAKTLHLLPLWGGGDRLRVFRADLHKEGSFNEAVQGCSGVFHVAASMEFEVPAKEDIDSYVRANVIEPAINGTLNLLKSCLKTPSVRRVVFTSSISTMTAKDSAGKWRSVVDESCQNPIDRVWKTKTGAWVYVLSKLLTEEAAFQFANENSIDLVSVITTTVAGPFLTSTVPTSVQVLLSPITGDSKFSRILSAVNSRMGSIALVHIEDICSAHIFLMEHDGAEGRYICSAHSSVISQLVDHLAKEHPFSNMQRLVEEEHGSVPSEISSKKLRDLGFNFKFGLEDIIHHTVSSCVDCGFLCPTVN

substrate: O=C1c2c(O)cc(O)cc2O[C@H](c2ccc(O)cc2)[C@H]1O; test: purified protein; type: biochemical, Camellia sinensis; settings: apparent Km, NADPH, 0.1 M potassium phosphate pH 7.0, 30 °C

Protein | Km [µM]
B1 | 145.10
B2 | 131.09
B3 | 148.96
B4 | 42.31

substrate: O=C1c2c(O)cc(O)cc2O[C@H](c2ccc(O)c(O)c2)[C@H]1O; test: purified protein; type: biochemical, Camellia sinensis; settings: apparent Km, NADPH, 0.1 M potassium phosphate pH 7.0, 30 °C

Protein | Km [µM]
B1 | 41.80
B2 | 102.57
B3 | 108.66
B4 | 81.80

substrate: O=C1c2c(O)cc(O)cc2O[C@H](c2cc(O)c(O)c(O)c2)[C@H]1O; test: purified protein; type: biochemical, Camellia sinensis; settings: apparent Km, NADPH, 0.1 M potassium phosphate pH 7.0, 30 °C

Protein | Km [µM]
B1 | 58.44
B2 | 47.75
B3 | 96.58
B4 | 105.56

Source: publication PMC9250652, “Functional analysis of the dihydroflavonol 4-reductase family of Camellia sinensis: exploiting key amino acids to reconstruct reduction activity” (Horticulture Research, 2022)
